This is an account of results in PMC10192418, “High-affinity peptides developed against calprotectin and their application as synthetic ligands in diagnostic assays” (Nature Communications, 2023).

The chains are these.
B1: B-RCAL (BÜHLMANN recombinant calprotectin; His6-linker-S100A9-linker-S100A8) (complex, human)
chain: MTCKMSQLERNIETIINTFHQYSVKLGHPDTLNQGEFKELVRKDLQNFLKKENKNEKVIEHIMEDLDTNADKQLSFEEFIMLMARLTWASHEKMHEGDEGPGHHHKPGLGEGTPLEVLFQGPMLTELEKALNSIIDVYHKYSLIKGNFHAVYRDDLKKLLETECPQYIRKKGADVWFKELDINTDGAVNFQEFLILVIKMGVAAHKKSHEESHKE
notes: S100A9 (Mrp-14), human; cleavable linker, HRV 3C protease recognition site (LEVLFQ/GP); not cleaved in this molecule; S100A8 (Mrp-8), human; With calcium two fusion chains form the calprotectin tetramer; without calcium (EDTA) a single fusion chain is the 'dimer' (S100A8/S100A9); also called heterodimeric fusion protein; source: provided by BÜHLMANN Laboratories AG

Data set [1] deals with the molecule itself. Nature of the data set: dynamic light scattering + other: mass photometry; B-RCAL in 20 mM HEPES, 100 mM NaCl, pH 7.5 with 2 mM CaCl2, 1 h at room temperature; tetramer = two B-RCAL fusion chains.
Data set [2] concerns the target B1. The data set can be described thus: fluorescence polarisation; calprotectin serially diluted, fluorescent peptide at 20 nM; 20 mM HEPES, 100 mM NaCl, 2 mM CaCl2, pH 7.5, 1 mM DTT, 0.01% Tween-20; tetrameric calprotectin; Kd calculated on the concentration of the heterodimer (1:1 heterodimer:peptide). As to conditions: both partners purified.
Data set [3] concerns the target T1, native calprotectin derived from granulocytes (human, UniProt P05109 1-93; P06702 1-114).
T1 construct: S100A8 (Mrp-8), human, native; S100A9 (Mrp-14), human, native; Tetramer with calcium, dimer with 1 mM EDTA; also called S100A8/S100A9; Mrp-8/Mrp-14; source: also native in human serum samples; copies: 2 + 2
T1 sequence (looked up) 1: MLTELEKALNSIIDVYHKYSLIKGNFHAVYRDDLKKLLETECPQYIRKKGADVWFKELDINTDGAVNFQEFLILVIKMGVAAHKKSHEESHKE
T1 sequence (looked up) 2: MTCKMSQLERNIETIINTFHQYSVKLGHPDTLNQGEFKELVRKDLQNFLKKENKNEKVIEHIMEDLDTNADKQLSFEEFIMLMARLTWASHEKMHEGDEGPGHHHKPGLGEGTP
The data set is described as above. As to conditions: both partners purified.

Data set [4] concerns the target T2, recombinant calprotectin B-RCAL lacking the His6-tag and with the heterodimer linker cleaved by 3C protease, … (human, cysteines replaced by serines | cysteines replaced by serines).
T2 construct: rest of the first HRV 3C site after cleavage (LEVLFQ/GP), worked out from the indicated cleavage site; S100A9, human; rest of the second HRV 3C site left on S100A9 after cleavage, worked out from the indicated cleavage site; rest of the second HRV 3C site after cleavage, worked out from the indicated cleavage site; S100A8, human; One heterodimer and one peptide in the asymmetric unit; the …
T2 chain 1: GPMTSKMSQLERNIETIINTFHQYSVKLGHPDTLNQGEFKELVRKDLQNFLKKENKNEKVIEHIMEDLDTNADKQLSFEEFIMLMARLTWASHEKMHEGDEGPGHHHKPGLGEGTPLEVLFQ
T2 chain 2: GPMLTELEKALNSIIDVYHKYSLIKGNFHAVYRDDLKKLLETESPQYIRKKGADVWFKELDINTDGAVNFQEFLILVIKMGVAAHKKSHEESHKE
Nature of the data set: crystal structure; co-crystallisation of cleaved cysteine-free calprotectin (440 μM) with 14-fold excess of linear peptide 3 and 1 mM CaCl2; sitting drop, 18 °C; 0.1 M MIB pH 6.0, 25% PEG 1500. The settings on record: both partners purified.

“And” between values parts separate entries of the source, which are not always exact repeats. Identical values can stand only once. Ends that are not written are not given here. 5(6)‑carboxyfluorescein = 5(6)-carboxyfluorescein on the N-terminus

For B1, the binding result in data set [1] is “binds”.

B2: linear peptide 3 (peptide)
peptide: {5(6)‑carboxyfluorescein}-RSPESVAFPMFQSHWYSG
notes: phage-selected peptide 3 with its four cysteines replaced by serines; Synthesised on rink amide AM resin, so a C-terminal amide is likely (surmised); also called peptide 3 (linear; all four cysteines replaced with serines); source: synthetic peptide (Fmoc solid-phase synthesis, HPLC purified)
What is called Kd is the concentration at which binding is half-saturated. Regarding B2, the dissociation constant (Kd) in data set [2] was 26 nM and 20 nM; in data set [3], 26 nM. The binding result in data set [4] was “binds”.
